Measurements from PMC2798008.

B1: sbi promoter (dsDNA)
DNA 1: CACTAGTTAATCTATTAGTTAACATTAGTTAATAATTAGTTAATTTCCAT
DNA 2: ATGGAAATTAACTAATTATTAACTAATGTTAACTAATAGATTAACTAGTG
B2: agrB promoter (dsDNA)
DNA 1: ATTTAACAGTTAAGTATTTATTTCCTACAGTTAGGCAATATAATGATAAA
DNA 2: TTTATCATTATATTGCCTAACTGTAGGAAATAAATACTTAACTGTTAAAT

Molecular target: T1, SaeRHis (Staphylococcus aureus USA300, UniProt Q2FIT4 1-228)
T1 sequence: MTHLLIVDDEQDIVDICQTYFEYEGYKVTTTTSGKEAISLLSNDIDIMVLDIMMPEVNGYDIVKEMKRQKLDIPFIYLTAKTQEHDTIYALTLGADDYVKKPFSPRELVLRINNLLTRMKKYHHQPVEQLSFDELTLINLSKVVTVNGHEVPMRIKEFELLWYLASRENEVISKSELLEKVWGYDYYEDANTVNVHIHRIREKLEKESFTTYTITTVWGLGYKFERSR
Assay: EMSA

Binder | binding result
B1 | binds
B2 | no binding
